Laboratory results taken from patent US20170189529A1 (CONTRAFECT, published 2017).
Read-outs that look alike come from different tables or passages of the source.

What was measured:
[1] = molecular target: H2 Japan/305/1957 HA monomer (influenza A virus H2 Japan/305/1957, UniProt P03451 16-525); test: kinetic binding to HA monomer (instrument not stated)
[2] = molecular target: T1, hemagglutinin (HA) of influenza B virus B/Malaysia (Victoria lineage) (influenza B virus B/Malaysia/04 …); test: recombinant HA ELISA (AttoPhos fluorescence, mean of triplicates)
[3] = molecular target: recombinant HA of influenza B virus B/Brisbane/08 (Victoria clade) (influenza B virus B/Brisbane/08 …); test: as above
[4] = molecular target: recombinant HA of influenza B virus B/Wisconsin/10 (Yamagata clade) (influenza B virus B/Wisconsin/10 …); test: as above
[5] = molecular target: T2, hemagglutinin (HA) of influenza B virus B/Florida (Yamagata lineage) (influenza B virus B/Florida/06 …); test: as above
[6] = molecular target: recombinant HA of influenza B virus B/Mass/12 (Yamagata clade) (influenza B virus B/Mass/12 (Yamagata …)); test: as above
[7] = molecular target: hemagglutinin of influenza A virus A/CA/04/09 (H1), on virus (influenza A virus H1 A/CA/04/09); test: cell-based or functional assay
[8] = molecular target: hemagglutinin of influenza A virus A/Mallard/MN/182753/98 (H9), on virus (influenza A virus H9 …); test: cell-based or functional assay
[9] = molecular target: hemagglutinin of influenza A virus A/mallard/MN/AI08-3881/08 (H2), on virus (influenza A virus H2 …); test: cell-based or functional assay
[10] = molecular target: T3, H3 Hong Kong/8/68 HA trimer (influenza A virus H3 Hong Kong/8/68); test: kinetic binding to HA trimer (instrument not stated)
T3 construct: Trimeric HA

[11] = molecular target: hemagglutinin of influenza A virus A/Canada/rv444/04 (H7), on virus (influenza A virus H7 A/Canada/rv444/04); test: cell-based or functional assay
[12] = molecular target: hemagglutinin of influenza A virus A/Wisconsin/67/2005, on virus (influenza A virus A/Wisconsin/67/2005); test: cell-based or functional assay
[13] = molecular target: hemagglutinin of influenza A virus A/Perth/16/2009 (H3), on virus (influenza A virus H3 A/Perth/16/2009); test: cell-based or functional assay
[14] = molecular target: hemagglutinin of influenza A virus A/New York/55/2004, on virus (influenza A virus A/New York/55/2004); test: cell-based or functional assay
[15] = molecular target: hemagglutinin of influenza A virus A/SW/MN/02719, on virus (influenza A virus A/SW/MN/02719); test: cell-based or functional assay
[16] = molecular target: hemagglutinin of influenza A virus A/Netherlands/219/03, on virus (influenza A virus A/Netherlands/219/03); test: cell-based or functional assay
[17] = molecular target: hemagglutinin of influenza A virus A/Udorn/307/1976, on virus (influenza A virus A/Udorn/307/1976); test: cell-based or functional assay
[18] = molecular target: hemagglutinin of influenza A virus A/Philippines/2/82 x-79, on virus (influenza A virus A/Philippines/2/82 …); test: cell-based or functional assay
[19] = molecular target: hemagglutinin of influenza A virus A/HongKong/68, on virus (influenza A virus A/HongKong/68); test: cell-based or functional assay
[20] = molecular target: hemagglutinin of influenza A virus A/Bufflehead (H4), on virus (influenza A virus H4 A/Bufflehead); test: cell-based or functional assay
[21] = molecular target: hemagglutinin of influenza A virus A/Northern Shoveler (H10), on virus (influenza A virus H10 A/Northern …); test: cell-based or functional assay
[22] = molecular target: T1, hemagglutinin (HA) of influenza B virus …
[23] = molecular target: T2, hemagglutinin (HA) of influenza B virus …
[24] = molecular target: T1, hemagglutinin (HA) of influenza B virus …; test: ForteBio Octet; antigen on the sensor, varying antibody concentrations
[25] = molecular target: T2, hemagglutinin (HA) of influenza B virus …; test: as above
[26] = molecular target: T1, hemagglutinin (HA) of influenza B virus …; test: affinity determination (method not stated there; data not shown)

B1: TRL053 (antibody, V domains shown)
VH: QVQLVQSGAEVRKPGSSVKVSCKVSGGIIRKYAINWVRQAPGQGLEWMGGIIAIFNTANYAQKFQGRVTITADESTSTVYMELSSLRSEDTALYYCARGMNYYSDYFDYWGQGSLVTVSP
VL: EIVLTQSPGTLSLSPGERATLSCRASQSVRSNNLAWYQHKPGQAPRLLIFGASSRATGIPDRFSGSGSGTDFTLTISRLEPEDFAVYYCQQYGSSPALTFGGGTKVEIKR
Kd [1]: 12.3 nM
koff [1]: 6.8e-05 s⁻¹
kon [1]: 5500 M⁻¹ s⁻¹
fold reactivity over background [2]: 1.6 fold over background
fold reactivity over background [3]: 1 fold over background
fold reactivity over background [4]: 2.8 fold over background
fold reactivity over background [5]: 1.1 fold over background
fold reactivity over background [6]: 1 fold over background
IC50 (ug/ml), MDCK monolayer microneutralization assay [7]: 0.9 µg/mL
IC50 (ug/ml), MDCK monolayer microneutralization assay [8]: 0.1 µg/mL
IC50 (ug/ml), MDCK monolayer microneutralization assay [9]: 0.3 µg/mL

B2: TRL579 (antibody, V domains shown)
VH: QVQLVQSGAEVKKPGASVKVSCKTSGYTFTAYTIHWVRQAPGQRLEWMGWINAGNGHTKYSQRFKGRVTITRDTSARTTYMELRSLTSEDTALYFCARGPETYYYDKTNWLNSHPDEYFQHWGHGTQVTVSS
VL: DIQMTQSPSTLSASVGDRVTITCRASQTINNYLAWYQQKPGKAPKLLIYKASSLESGVPSRFSGSGSGTEFTLTISSLQPDDFATYYCQEYNNDSPLTFGGGTKVEIKR
fold reactivity over background [2]: 1.1 fold over background
fold reactivity over background [3]: 1 fold over background
fold reactivity over background [4]: 1 fold over background
fold reactivity over background [5]: 1 fold over background
fold reactivity over background [6]: 3.2 fold over background
Kd [10]: 0.2 nM
koff [10]: 5.8e-05 s⁻¹
kon [10]: 250000 M⁻¹ s⁻¹
IC50 (ug/ml), MDCK monolayer microneutralization assay [11]: 1.6 µg/mL
IC50 (ug/ml), MDCK monolayer microneutralization assay [12]: 1 µg/mL
IC50 (ug/ml), MDCK monolayer microneutralization assay [13]: 0.2 µg/mL
IC50 (ug/ml), MDCK monolayer microneutralization assay [14]: 1.1 µg/mL
IC50 (ug/ml), MDCK monolayer microneutralization assay [15]: 3.9 µg/mL
IC50 (ug/ml), MDCK monolayer microneutralization assay [16]: 0.6 µg/mL
IC50 (ug/ml), MDCK monolayer microneutralization assay [17]: 1.9 µg/mL
IC50 (ug/ml), MDCK monolayer microneutralization assay [18]: 0.9 µg/mL
IC50 (ug/ml), MDCK monolayer microneutralization assay [19]: 2.8 µg/mL
IC50 (ug/ml), MDCK monolayer microneutralization assay [20]: 15.5 µg/mL
IC50 (ug/ml), MDCK monolayer microneutralization assay [21]: 0.8 µg/mL

B3: TRL846 (antibody, V domains shown)
VH: QVQLVESGGGLVQPGGSLRLSCTVSGFTFNSYAMNWVRQAPGKGLEWVSGIRGSGENTYYAETVKGRFTISRDNSKNTLYLEMNSLRAEDTAVYYCARKWGRMTVFGVATDQLYYFDYWGQGTLVTVSS
VL: DITLTQSPATLSVSPGERATLSCRASQSVSSNLAWYQQKPGQAPRLLIYGASNRATDIPARFSGSGSGTEFTLTISSLQSEDFAVYYCQQFNDWPFLTFGGGTKVEIKR
fold reactivity over background [2]: 25.6 fold over background
fold reactivity over background [3]: 25.6 fold over background
fold reactivity over background [4]: 25.6 fold over background
fold reactivity over background [5]: 25.6 fold over background
fold reactivity over background [6]: 25.6 fold over background
Kd [22]: < 1 nM
Kd [23]: 0.85 nM

B4: TRL845 (antibody, V domains shown)
VH: QVQLVQSGGDLVQPGGSLRLSCAASGFTFSRYSMNWVRQAPGMGLEWVAYISDTSRTIYYADSVKGRFTISRDNAKNSLYLQMKSLRDEDTAVYYCARDPDTPFVRAFDSWGQGTLVTVSS
VL: DIVLTQSPSFLSASVGDRVTITCRASQLISSYFAWYQQKPGKPPKLLIYAASTLQSGVPSRFSGSGSGTQFSLTISSLQPEDFATYYCQQLNSYPPITFGQGTRLEIKR
Kd [24]: < 1 nM
Kd [25]: 5.2 nM
fold reactivity over background [2]: 25.6 fold over background
fold reactivity over background [3]: 25.6 fold over background
fold reactivity over background [4]: 25.6 fold over background
fold reactivity over background [5]: 25.6 fold over background
fold reactivity over background [6]: 25.6 fold over background
Kd [23]: 0.19 nM

B5: TRL848 (antibody, V domains shown)
VH: QVQLLESGGDVVQPGTSLRLSCAASGFSLWTSGMHWVRQAPGKGLEWVAVMSYDETKKYYADSVRGRFSISRDNSRNTLYLQMNSLRVEDTAVYFCAKPRLDYLDYFHAADSWGQGTLVSVSS
VL: DIVLTQPPSVSVAPGQTATITCGGNYIGSKSVNWYQQRPGHAPVLVVYDDSDRPSGIPDRFSGSNSRSTATTATLTISRVEAGDEADYYCQVWETSEDLWVFGGGTKLTVLG
Kd [24]: < 1 nM
Kd [25]: 3.9 nM
fold reactivity over background [2]: 25.6 fold over background
fold reactivity over background [3]: 25.6 fold over background
fold reactivity over background [4]: 25.6 fold over background
fold reactivity over background [5]: 25.6 fold over background
fold reactivity over background [6]: 25.6 fold over background
Kd [23]: 1.7 nM

B6: TRL854 (antibody, V domains shown)
VH: QVQLVESGAEVKKPGASVRVSCKGSGYTFTAYHMHWVRQAPGQGFEWVGWINPNSGATYYTSTFEGRVTMTRDTSITTAYMELSSLRSDDTAVYYCATDIVVERDASLGGFNSYGMDVWGQGTTVTVSS
VL: DIEMTQSPLSLPVTPGEPASISCRSSQSLLHSNGYNHLAWYLQKPGRSPHLLIYLASTRASGVPDRFSGSGSGTDFTLKISRVEAEDVGIYYCMQSLQTSITFGQGTRLEIKR
Kd [26]: < 1 nM
fold reactivity over background [2]: 25.6 fold over background
fold reactivity over background [3]: 25.6 fold over background
fold reactivity over background [4]: 25.6 fold over background
fold reactivity over background [5]: 25.6 fold over background
fold reactivity over background [6]: 25.6 fold over background
Kd [23]: 8.8 nM

B7: TRL842 (antibody, V domains shown)
VH: B5 VH
VL: B5 VL
Kd [24]: < 1 nM
Kd [25]: 2.5 nM
fold reactivity over background [2]: 25.6 fold over background
fold reactivity over background [3]: 25.6 fold over background
fold reactivity over background [4]: 25.6 fold over background
fold reactivity over background [5]: 25.6 fold over background
fold reactivity over background [6]: 25.6 fold over background

B8: TRL847 (antibody, V domains shown)
VH: QVQLVESGGGLVQPGGSLRLSCVASGFTFSRFSMNWVRQAPGMGLEWVSYISDTGRTIYYADSVKGRFTISRDNDKNTLYLQMKSLRDEDSAFYYCARDPDTPFVRAFDSWGQGVLVTVSS
VL: DIVMTQSPSFLSASVGDRVTITCRTSQVISSYLAWYQQRPGKAPKLLIYAASTLQSGVPSRFSGSGSGTRFSLTISNLQPEDFATYFCQQLTTYPPITFGQGTRLEIKR
Kd [24]: < 1 nM
Kd [25]: 0.7 nM
fold reactivity over background [2]: 25.6 fold over background
fold reactivity over background [3]: 25.6 fold over background
fold reactivity over background [4]: 25.6 fold over background
fold reactivity over background [5]: 25.6 fold over background
fold reactivity over background [6]: 25.6 fold over background

B9: TRL849 (antibody, V domains shown)
VH: QVQLVESGPGLVKPSQTLSLTCTVSGGSISNGGYHWSWIRQHPGKGLEWIGNIYYRGSTFYDPSLKSRVTISVDTSKSQFSLKLTSVTAADTAVYYCARMPLANYDLLTGLYIGAFDLWGQGTMVTVSS
VL: DIVLTQSPATLSVSPGERATLSCRASQSVNRNLAWFQQIPGQAPRLLIFDASTRAADIPARFSGGGSGAEFTLTVSSLQPEDFAVYYCQQYDKWPPGFGQGTKVEIKR
Kd [24]: < 1 nM
Kd [25]: 0.2 nM
fold reactivity over background [2]: 25.6 fold over background
fold reactivity over background [3]: 25.6 fold over background
fold reactivity over background [4]: 25.6 fold over background
fold reactivity over background [5]: 25.6 fold over background
fold reactivity over background [6]: 25.6 fold over background
